In patent US20080050363A1 (published 2008):
Ends that are not written are not given here.

T1: human OGF receptor (OGFr), native, in nuclear preparations of human cells and tissues (human, UniProt Q9NZT2 1-662, limits assumed)
T1 construct: Native receptor in nuclear homogenates (placenta, PANC-1, MIA PaCa-2, Capan-1, BxPC-3, pancreatic tissue, head and neck tissue); also called zeta opioid receptor; receptor for OGF
T1 chain: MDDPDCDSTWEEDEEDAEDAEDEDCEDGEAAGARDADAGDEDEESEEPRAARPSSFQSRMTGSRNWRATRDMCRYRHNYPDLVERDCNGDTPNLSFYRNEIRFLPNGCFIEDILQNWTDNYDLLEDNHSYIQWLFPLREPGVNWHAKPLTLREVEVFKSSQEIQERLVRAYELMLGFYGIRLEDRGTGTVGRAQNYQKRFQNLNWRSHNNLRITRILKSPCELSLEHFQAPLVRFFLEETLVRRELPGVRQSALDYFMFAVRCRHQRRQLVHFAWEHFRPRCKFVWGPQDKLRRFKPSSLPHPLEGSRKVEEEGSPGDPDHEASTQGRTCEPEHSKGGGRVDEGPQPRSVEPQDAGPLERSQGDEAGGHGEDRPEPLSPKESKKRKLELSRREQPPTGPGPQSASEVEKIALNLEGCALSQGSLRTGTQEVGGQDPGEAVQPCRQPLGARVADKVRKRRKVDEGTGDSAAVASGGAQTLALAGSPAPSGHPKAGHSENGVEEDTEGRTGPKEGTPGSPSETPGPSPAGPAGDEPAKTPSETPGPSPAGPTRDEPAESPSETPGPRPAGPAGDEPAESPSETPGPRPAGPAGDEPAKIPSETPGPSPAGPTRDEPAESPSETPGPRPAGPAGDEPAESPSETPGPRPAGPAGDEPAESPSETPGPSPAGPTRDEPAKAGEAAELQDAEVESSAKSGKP

T2: 12-GST fusion protein (GST fused to rat OGFr, all 580 amino acids, from clone #12) (rat, UniProt Q9QXY4 1-580)
T2 construct: The order GST then OGFr follows the pGEX-3X vector; also called purified fusion protein from the rat OGFr cDNA clone #12; not shown: glutathione-S-transferase (GST) of the pGEX-3X expression vector
T2 sequence: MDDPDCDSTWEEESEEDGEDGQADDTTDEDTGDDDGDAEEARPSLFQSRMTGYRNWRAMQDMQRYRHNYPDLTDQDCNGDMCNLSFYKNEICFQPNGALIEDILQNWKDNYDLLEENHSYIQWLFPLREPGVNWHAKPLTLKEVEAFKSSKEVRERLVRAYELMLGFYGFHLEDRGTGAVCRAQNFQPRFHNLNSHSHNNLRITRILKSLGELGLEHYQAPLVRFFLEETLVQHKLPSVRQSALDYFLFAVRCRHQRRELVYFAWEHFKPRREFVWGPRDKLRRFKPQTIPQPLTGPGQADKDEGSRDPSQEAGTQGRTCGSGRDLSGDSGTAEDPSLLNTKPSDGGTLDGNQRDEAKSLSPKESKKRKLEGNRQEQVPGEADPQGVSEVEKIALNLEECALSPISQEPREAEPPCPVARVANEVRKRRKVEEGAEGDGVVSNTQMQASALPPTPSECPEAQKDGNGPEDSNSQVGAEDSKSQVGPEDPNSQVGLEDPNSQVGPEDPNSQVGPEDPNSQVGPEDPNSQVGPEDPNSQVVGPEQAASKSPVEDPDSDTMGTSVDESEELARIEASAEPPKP


Key:
[1] = molecular target: human OGF receptor (OGFr), native, in nuclear preparations of human cells and tissues (human) (UniProt Q9NZT2); assay: competition with [3H]-[Met5]-enkephalin, PANC-1 nuclear homogenates; IC50/Kd
[2] = molecular target: T1, human OGF receptor (OGFr), native, in …; assay: as above
Description: Each concentration was run in triplicate and every compound was tested twice.
Competition experiments using 1 or 2 nM [³H]

[3] = molecular target: T1, human OGF receptor (OGFr), native, in …; assay: radioligand saturation binding, nuclear-enriched fraction of human placenta
[4] = molecular target: T2, 12-GST fusion protein (GST fused to rat …); assay: [3H]-[Met5]-enkephalin saturation binding, filter assay, purified 12-GST fusion protein, 22 C
Description: Fusion proteins (80-120 ng/tube) were incubated for 30 min with shaking at 22° C. Non-specific binding was measured in the presence of unlabeled [Met⁵]-enkephalin. In some assays, NTX (10⁻³ M) was added to the reaction mixture to monitor opioid antagonist blockade of binding. Binding was terminated by filtering homogenates through Whatman GF/B filters. Saturation isotherms were plotted using GraphPad Prism software (GraphPad Software Inc., San Diego, Calif.).

| Molecule | IC50 [1] [µM] | IC50 [2] [µM] | further results |
| --- | --- | --- | --- |
| [D-Pen^2, Pen^5]-enkephalin (peptide) | > 100 | – | – |
| [D-Ala^2, N-Me-Phe^4, Gly^5-ol]-enkephalin (peptide) | > 100 | – | – |
| ICI-174, 568 (peptide) | > 100 | – | – |
| YGGFLRRI (peptide, UniProt P01213 207-214, looked up, domain: Dynorphin A1-8; 1-8 counts on dynorphin A, not on the precursor) [dynorphin A1-8] | – | > 100 | – |
| YGGFM (peptide, UniProt P01210 100-104, looked up, also: [3H] label on radioligand form, domain: [Met^5]-enkephalin; only the pentapeptide stood in the assay; also called OGF; [^3H]-[Met^5]-enkephalin) [[Met^5]-enkephalin (opioid growth factor)] | – | – | Kd [3]: 12.3 nM; Kd [4]: 2.8 nM |
| YGGFL (peptide, UniProt P01210 230-234, looked up, domain: Leucine enkephalin) [Leucine enkephalin] | – | > 100 | – |
